Data: patent US20080171347A1

Target: mouse synaptosomes (synaptosome preparation carrying the BoNT/A acceptor complex)

Q: Which percent inhibition (maximum) does the source give for “inactivated BoNT/A (toxoid) (from UniProt P0DPI1 2-1296)” here?
A: 98%
